Test results taken from the supplement of paper PMC7125110.
± gives the standard error. Fewer inactive variants are shown than the library holds.

B1: glmS ribozyme (parent)
chain: AUAAAAGCGCCAGAACUACAGAAAUGUAGUUGACGAGGAGGAGGUUUAUCGAAUUUUCGGCGGAUGCCUCCAAA

What was measured:
Settings in all cases: with glucosamine-6-phosphate
glucosamine-6-phosphate [1] = variants of: B1; assay: self-cleavage kobs at 40 uM GlcN6P; higher = faster cleavage; RNA array
In short: (§1)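 Barcoded ribozyme variants, transcribed in situ by E. coli RNA polymerase on sequenced MiSeq chips, were followed via a hybridised Cy3 probe at 37 °C. Glucosamine-6-phosphate ranged from 40 μM to 10 mM in HEPES/KCl/Mg(OAc)2 buffer. kobs came from decay fits to per-tile medians, and kcat and KM from weighted Michaelis–Menten fits.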

glucosamine-6-phosphate [2] = variants of: B1; assay: self-cleavage kobs at 160 uM GlcN6P; higher = faster cleavage; RNA array
In short: as §1

glucosamine-6-phosphate [3] = variants of: B1; assay: self-cleavage kobs at 640 uM GlcN6P; higher = faster cleavage; RNA array
In short: as §1

glucosamine-6-phosphate [4] = variants of: B1; assay: self-cleavage kobs at 2500 uM GlcN6P; higher = faster cleavage; RNA array
In short: as §1

glucosamine-6-phosphate [5] = variants of: B1; assay: self-cleavage kobs at 10000 uM GlcN6P; higher = faster cleavage; RNA array
In short: as §1

Row | Variant | self-cleavage kobs at 40 uM GlcN6P (glucosamine-6-phosphate [1]) [s⁻¹] | self-cleavage kobs at 160 uM GlcN6P (glucosamine-6-phosphate [2]) [s⁻¹] | self-cleavage kobs at 640 uM GlcN6P (glucosamine-6-phosphate [3]) [s⁻¹] | self-cleavage kobs at 2500 uM GlcN6P (glucosamine-6-phosphate [4]) [s⁻¹] | self-cleavage kobs at 10000 uM GlcN6P (glucosamine-6-phosphate [5]) [s⁻¹]
1 | A12U G41U C61U | < 1e-05 | < 1e-05 | < 1e-05 | < 1e-05 | < 1e-05
2 | A33C C68A | < 1e-05 | – | < 1e-05 | < 1e-05 | < 1e-05
3 | A48C A64C | < 1e-05 | < 1e-05 | – | < 1e-05 | –
4 | G13U A36G | < 1e-05 | < 1e-05 | < 1e-05 | < 1e-05 | < 1e-05
5 | C10A G13U G37U G60A U65A | < 1e-05 | – | < 1e-05 | – | < 1e-05
6 | G7U A15G | < 1e-05 | < 1e-05 | < 1e-05 | < 1e-05 | < 1e-05
7 | G13C G62A | < 1e-05 | – | – | < 1e-05 | –
8 | A36C C50A G62C | < 1e-05 | – | – | – | –
9 | C10U G37C G44U U65C | < 1e-05 | < 1e-05 | < 1e-05 | < 1e-05 | –
10 | A15C C70U | 0.000192 ± 1.8e-05 | 0.000389 ± 4.7e-05 | 0.000719 ± 7.7e-05 | 0.00537 ± 0.0012 | 0.00871 ± 0.0019
11 | G32U C34U | < 1e-05 | < 1e-05 | < 1e-05 | – | < 1e-05
12 | U47A C50A U54A | < 1e-05 | – | – | – | –
13 | U31G A53G | 0.000276 ± 4.7e-05 | 0.000661 ± 0.00018 | – | 0.00382 ± 0.00096 | 0.02 ± 0.0035
14 | G32U G38A | < 1e-05 | – | – | – | < 1e-05
15 | C10U U45G G51U A64U | < 1e-05 | – | – | – | < 1e-05
16 | C10U G43U C70A | < 1e-05 | – | – | – | –
17 | G9U G41C | < 1e-05 | < 1e-05 | – | < 1e-05 | –
18 | C19A G51A | < 1e-05 | – | – | – | < 1e-05
19 | A6C C34U | < 1e-05 | < 1e-05 | < 1e-05 | < 1e-05 | < 1e-05
20 | C8U C34G | < 1e-05 | < 1e-05 | – | – | < 1e-05
21 | A14G U30A | 0.000672 ± 0.00011 | 0.00098 ± 0.00024 | 0.00759 ± 0.0013 | 0.0384 ± 0.012 | 0.017 ± 0.0042
22 | A14G G41A C67U | < 1e-05 | – | – | – | –

Row | Variant | self-cleavage kobs at 40 uM GlcN6P (glucosamine-6-phosphate [1]) [s⁻¹] | self-cleavage kobs at 160 uM GlcN6P (glucosamine-6-phosphate [2]) [s⁻¹] | self-cleavage kobs at 640 uM GlcN6P (glucosamine-6-phosphate [3]) [s⁻¹] | self-cleavage kobs at 2500 uM GlcN6P (glucosamine-6-phosphate [4]) [s⁻¹] | self-cleavage kobs at 10000 uM GlcN6P (glucosamine-6-phosphate [5]) [s⁻¹]
23 | G38U C61U U69C C71G | 6.15e-05 ± 2.4e-05 | – | – | – | 4.2e-05 ± 1.5e-05
24 | G13C G51C G63C | < 1e-05 | – | – | – | –
25 | C11G A36C G37U G38U U49A G63C U65A | < 1e-05 | – | – | – | < 1e-05
26 | U45C G60U | < 1e-05 | < 1e-05 | < 1e-05 | – | < 1e-05
27 | A14U A53G | 0.000202 ± 2.5e-05 | 0.000311 ± 5.2e-05 | 0.00204 ± 0.00026 | 0.00365 ± 0.00059 | 0.00969 ± 0.0011
28 | C16U G29C G37A G44A | < 1e-05 | – | – | – | –
29 | G40U A53U C58A G62U | < 1e-05 | – | – | – | –
30 | C34G G62A | < 1e-05 | – | < 1e-05 | < 1e-05 | < 1e-05
31 | A6U C34A | < 1e-05 | < 1e-05 | < 1e-05 | < 1e-05 | < 1e-05
32 | U56G C67A | 6.65e-05 ± 1.8e-05 | 0.000207 ± 5.3e-05 | 0.00102 ± 0.00014 | 0.000842 ± 0.00014 | 0.00273 ± 0.00081
33 | G9U C11U C68U | < 1e-05 | – | – | – | –
34 | A12U A14U A53G | 0.000135 ± 3.3e-05 | – | – | – | 0.00411 ± 0.00079
35 | G13A C34G C50U C67G | 0.000108 ± 3.3e-05 | – | 0.00142 ± 0.00036 | – | 8.5e-05 ± 2.6e-05
36 | G9U C70U | < 1e-05 | < 1e-05 | < 1e-05 | – | < 1e-05
37 | A36U C70G | 3.74e-05 ± 8.5e-06 | 2.91e-05 ± 1.4e-05 | 0.000403 ± 6.8e-05 | – | –
38 | G63C A64U | < 1e-05 | – | < 1e-05 | < 1e-05 | < 1e-05
39 | A36G G59U | < 1e-05 | < 1e-05 | < 1e-05 | < 1e-05 | < 1e-05
40 | A36U G44A | < 1e-05 | < 1e-05 | < 1e-05 | < 1e-05 | < 1e-05
41 | A36G U65G | < 1e-05 | < 1e-05 | < 1e-05 | < 1e-05 | < 1e-05
42 | C8A G51U C61U | < 1e-05 | < 1e-05 | < 1e-05 | < 1e-05 | –
43 | A42C C61U C71A | < 1e-05 | – | – | – | –
44 | A14U G40A G51U | < 1e-05 | – | – | – | –

Row | Variant | self-cleavage kobs at 40 uM GlcN6P (glucosamine-6-phosphate [1]) [s⁻¹] | self-cleavage kobs at 160 uM GlcN6P (glucosamine-6-phosphate [2]) [s⁻¹] | self-cleavage kobs at 640 uM GlcN6P (glucosamine-6-phosphate [3]) [s⁻¹] | self-cleavage kobs at 2500 uM GlcN6P (glucosamine-6-phosphate [4]) [s⁻¹] | self-cleavage kobs at 10000 uM GlcN6P (glucosamine-6-phosphate [5]) [s⁻¹]
45 | G38C C67U | < 1e-05 | – | – | < 1e-05 | < 1e-05
46 | C16G G41C C68G | < 1e-05 | – | – | – | < 1e-05
47 | U56C G59C C68G | < 1e-05 | – | – | – | < 1e-05
48 | A14U A36G C50U C61A | < 1e-05 | – | – | – | –
49 | A48C U49G G62A | < 1e-05 | – | – | – | –
50 | A53G C61G | < 1e-05 | – | – | – | –
51 | U47C G66C | < 1e-05 | < 1e-05 | < 1e-05 | < 1e-05 | –
52 | G38U G59A C68G | 6.06e-05 ± 2.6e-05 | – | – | – | 4.84e-05 ± 1.9e-05
53 | G9U U31G | < 1e-05 | < 1e-05 | < 1e-05 | < 1e-05 | < 1e-05
54 | C16U G43C | < 1e-05 | – | – | – | < 1e-05
55 | U47C G59U C70A | < 1e-05 | – | – | – | –
56 | A14G G51C A53C | < 1e-05 | – | – | – | –
57 | G41U C61A | < 1e-05 | < 1e-05 | < 1e-05 | – | < 1e-05
58 | C8U A33U G66C | < 1e-05 | – | – | – | –
59 | G9A A52U | < 1e-05 | < 1e-05 | < 1e-05 | < 1e-05 | < 1e-05
60 | G43C U56A C61G | < 1e-05 | – | – | – | < 1e-05
61 | C8A A14G C58U | < 1e-05 | – | – | – | < 1e-05
62 | C10A G43C | < 1e-05 | < 1e-05 | < 1e-05 | – | < 1e-05
63 | A36G G43A C58A G62C C68G | < 1e-05 | – | – | – | < 1e-05
64 | C10A U30C | < 1e-05 | < 1e-05 | < 1e-05 | < 1e-05 | < 1e-05
65 | G35A U47C | < 1e-05 | < 1e-05 | < 1e-05 | < 1e-05 | –
66 | C10G G32C U57A | < 1e-05 | – | – | – | –

Row | Variant | self-cleavage kobs at 40 uM GlcN6P (glucosamine-6-phosphate [1]) [s⁻¹] | self-cleavage kobs at 160 uM GlcN6P (glucosamine-6-phosphate [2]) [s⁻¹] | self-cleavage kobs at 640 uM GlcN6P (glucosamine-6-phosphate [3]) [s⁻¹] | self-cleavage kobs at 2500 uM GlcN6P (glucosamine-6-phosphate [4]) [s⁻¹] | self-cleavage kobs at 10000 uM GlcN6P (glucosamine-6-phosphate [5]) [s⁻¹]
67 | A12G C34G G41C C50U U55A | < 1e-05 | – | < 1e-05 | – | –
68 | A36G U55C C67U | < 1e-05 | – | < 1e-05 | < 1e-05 | –
69 | G38A C58A G66A | < 1e-05 | – | – | – | < 1e-05
70 | G44A A52G | < 1e-05 | < 1e-05 | – | – | –
71 | G44C C70G | < 1e-05 | < 1e-05 | < 1e-05 | < 1e-05 | < 1e-05
72 | C8A G40U | < 1e-05 | < 1e-05 | < 1e-05 | < 1e-05 | < 1e-05
73 | A33U A36C G59C | < 1e-05 | – | – | – | < 1e-05
74 | A12C G35U | < 1e-05 | < 1e-05 | < 1e-05 | < 1e-05 | < 1e-05
75 | G29C G51U U55G | < 1e-05 | – | – | – | < 1e-05
76 | A42U C71G | < 1e-05 | < 1e-05 | – | – | 3.51e-05 ± 1e-05
77 | A6C C11G G29U C34G G51C | < 1e-05 | – | – | – | –
78 | A6G C61U | < 1e-05 | < 1e-05 | < 1e-05 | < 1e-05 | < 1e-05
79 | G43C A53C U56C | < 1e-05 | < 1e-05 | – | < 1e-05 | < 1e-05
80 | C8A A53G | < 1e-05 | < 1e-05 | < 1e-05 | < 1e-05 | < 1e-05
81 | U57A C61U | < 1e-05 | – | < 1e-05 | < 1e-05 | < 1e-05
82 | C16G U54G G60A C70A | < 1e-05 | – | 0.000647 ± 0.0003 | 3.79e-05 ± 1.7e-05 | –
83 | A6G A14G G32C G44A A53C U65G C68U | < 1e-05 | – | – | < 1e-05 | –
84 | G44A A48U | < 1e-05 | < 1e-05 | < 1e-05 | – | –
85 | U31A G37C U69G | < 1e-05 | – | – | – | –
86 | G7A C67G | < 1e-05 | – | < 1e-05 | < 1e-05 | –
